Target: T1, IrtA, full length (subunit of full-length Mtb IrtAB) (M. tuberculosis H37Rv, UniProt P9WQJ9 1-859)
T1 construct: also called Rv1348
T1 sequence: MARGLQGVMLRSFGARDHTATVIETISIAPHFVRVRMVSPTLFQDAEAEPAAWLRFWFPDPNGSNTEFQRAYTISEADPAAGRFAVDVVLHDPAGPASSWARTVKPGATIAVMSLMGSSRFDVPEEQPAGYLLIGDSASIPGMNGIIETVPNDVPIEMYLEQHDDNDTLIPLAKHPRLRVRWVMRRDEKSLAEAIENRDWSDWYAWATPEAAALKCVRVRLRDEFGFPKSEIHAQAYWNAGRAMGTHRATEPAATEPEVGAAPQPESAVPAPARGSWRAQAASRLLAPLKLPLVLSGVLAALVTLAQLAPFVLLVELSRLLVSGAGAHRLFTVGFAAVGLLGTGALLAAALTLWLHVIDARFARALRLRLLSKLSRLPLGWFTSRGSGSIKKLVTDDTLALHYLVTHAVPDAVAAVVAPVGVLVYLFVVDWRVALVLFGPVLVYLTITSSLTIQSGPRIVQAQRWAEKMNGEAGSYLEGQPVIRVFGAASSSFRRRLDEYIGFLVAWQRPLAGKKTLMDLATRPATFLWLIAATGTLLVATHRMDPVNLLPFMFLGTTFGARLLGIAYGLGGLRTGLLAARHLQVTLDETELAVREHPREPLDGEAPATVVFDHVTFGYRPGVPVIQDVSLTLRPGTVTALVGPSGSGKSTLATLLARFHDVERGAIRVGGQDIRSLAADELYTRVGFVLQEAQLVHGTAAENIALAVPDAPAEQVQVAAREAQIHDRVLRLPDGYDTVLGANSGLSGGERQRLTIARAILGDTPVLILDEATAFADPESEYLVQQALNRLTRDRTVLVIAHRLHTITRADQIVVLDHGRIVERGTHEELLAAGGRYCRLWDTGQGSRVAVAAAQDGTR
Assay: cryo-EM structure; full-length IrtAB in digitonin, no nucleotide added; 20 mM MES, 150 mM NaCl, pH 6.5; inward-facing
Details: both partners purified

B1: IrtB with a C-terminal 10x His tag (subunit of Mtb IrtAB) (natural protein)
chain: MIRTWIALVPNDHRARLIGFALLAFCSVVARAVGTVLLVPLMAALFGEAPQRAWLWLGWLSAATVAGWVLDAVTARIGIELGFAVLNHTQHDVADRLPVVRLDWFTAENTATARQAIAATGPELVGLVVNLVTPLTSAILLPAVIALALLPISWQLGVAALAGVPLLLGALWASAAFARRADTAADKANTALTERIIEFARTQQALRAARRVEPARSLVGNALASQHTATMRLLGMQIPGQLLFSIASQLALIVLAGTTAALTITGTLTVPEAIALIVVMVRYLEPFTAVSELAPALESTRATLGRIGSVLTAPVMVAGSGTWRDGAVVPRIEFDDVAFGYDGGSGPVLDGVSFCLQPGTTTAIVGPSGCGKSTILALIAGLHQPTRGRVLIDGTDVATLDARAQQAVCSVVFQHPYLFHGTIRDNVFAADPGASDDQFAQAVRLARVDELIARLPDGANTIVGEAGSALSGGERQRVSIARALLKAAPVLLVDEATSALDAENEAAVVDALAADPRSRTRVIVAHRLASIRHADRVLFVDDGRVVEDGSISELLTAGGRFSQFWRQQHEAAEWQILAE
notes: IrtB (Rv1349) of Mycobacterium tuberculosis H37Rv, TMD and NBD; The same IrtB chain stands in full-length IrtAB and in IrtAB(ΔSID); also called Rv1349
Question: Does B1 bind?
Answer: binds
